We go through 1 molecule from US9926375B2, “Anti-endoglin antibodies and uses thereof” (Tracon Pharmaceuticals, Inc., priority 2014, dated 2018).

In one data set the target is T1, mouse endoglin (Mus musculus, UniProt Q63961).
T1 sequence (Q63961 27-653): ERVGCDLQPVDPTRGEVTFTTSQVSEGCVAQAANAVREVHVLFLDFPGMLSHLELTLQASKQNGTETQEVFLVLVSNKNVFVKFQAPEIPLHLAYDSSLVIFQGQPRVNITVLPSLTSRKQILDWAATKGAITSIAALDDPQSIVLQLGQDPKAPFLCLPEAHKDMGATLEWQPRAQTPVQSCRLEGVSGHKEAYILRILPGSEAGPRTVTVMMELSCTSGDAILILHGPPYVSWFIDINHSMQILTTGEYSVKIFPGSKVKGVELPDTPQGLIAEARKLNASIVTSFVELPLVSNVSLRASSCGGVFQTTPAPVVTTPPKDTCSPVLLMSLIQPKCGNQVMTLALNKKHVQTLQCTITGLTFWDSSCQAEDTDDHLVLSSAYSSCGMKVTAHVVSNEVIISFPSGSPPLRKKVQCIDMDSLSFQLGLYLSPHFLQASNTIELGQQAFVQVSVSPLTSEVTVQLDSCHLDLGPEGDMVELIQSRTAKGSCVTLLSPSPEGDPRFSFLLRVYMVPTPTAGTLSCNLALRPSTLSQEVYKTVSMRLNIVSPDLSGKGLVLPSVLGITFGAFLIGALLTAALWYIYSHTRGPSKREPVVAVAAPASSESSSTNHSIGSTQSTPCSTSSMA
Kind of data set: Inhibition of mouse BMP binding to mouse endoglin (statement, no method). To be noted: statement in description.

The test system of data set [1] is CCl4-induced liver fibrosis model mice. Kind of data set: Carbon tetrachloride-induced liver fibrosis model. Format: in vivo, mouse. To be noted: for Percentage of fibrosis area (Sirius red-positive area), comparison with isotype-matched antibody group: P<0.05, Bonferroni. As for the experimental part: Seven-week-old female C57BL/6J mice (17˜21 g) were obtained from Japan SLC (Japan).
Mice were divided into 3 groups of 8 mice based on their body weight on the day before the start of the treatment (day 13).
Mice were intraperitoneally administered 5% CCl4 (Sigma-Aldrich, USA) in mineral oil (Sigma-Aldrich) in a volume of 100 μL twice a week (day 0, 4, 7, 11, 14, 18, 21 and 25) after acclimation.
To visualize collagen deposition, sections were cut from paraffin blocks of left lateral liver tissue prefixed in Bouin's solution and stained with picro-Sirius red solution (Waldeck, Germany). For quantitative analysis of fibrosis area, bright field images of Sirius red-stained section were randomly captured using a digital camera (DFC280; Leica Microsystems, Germany) at 100-fold magnification, and the Sirius red-stained positive areas in 5 field/section were measured using ImageJ software (National Institute of Health, USA). The quantification was done in a blinded fashion.
Statistical analyses were performed using Bonferroni Multiple comparison test on GraphPad Prism 4 (GraphPad Software, USA). P values<0.05 were considered statistically significant. Results were expressed as mean±SD.
Eight CCl4-induced liver fibrosis model mice were intravenously administered vehicle supplemented with M1043 Antibody at a dose of 10 mg/kg twice weekly at day 14, 17, 21 and 24. All animals were sacrificed on day 28.

Data set [2] concerns BLM-induced pulmonary fibrosis model mice. Kind of data set: Bleomycin-induced pulmonary fibrosis model. Format: in vivo, mouse. The following applies: vs isotype-control antibody group (isotype-control vs disease control group); day 21; Bonferroni, P<0.05. The protocol: Pathogen-free 7 weeks old female C57BL/6J mice were obtained from Japan SLC, Inc. (Japan). At day 0, 60 mice were induced to develop pulmonary fibrosis by a single intratracheal administration of bleomycin sulphate (BLM, Nippon Kayaku, Japan) in saline at a dose of 3 mg/kg, in a volume of 50 μL per animal using Microsprayer® (Penn-Century, USA).
BLM-induced pulmonary fibrosis model mice were randomized into 4 groups of 12 mice based on the body weight on the day before the start of treatment.
Group 3 (M1043 Antibody): Twelve BLM-induced pulmonary fibrosis model mice were intravenously administered vehicle supplemented with M1043 at a dose of 10 mg/kg twice weekly at day 7, 10, 14 and 17.
Group 4 (TRC105 human/mouse chimeric antibody): Twelve BLM-induced pulmonary fibrosis model mice were intravenously administered vehicle supplemented with TRC105 at a dose of 10 mg/kg twice weekly at day 7, 10, 14 and 17.
Group 5 (BIBF1120 inhibitor for Idiopathic Pulmonary Fibrosis—positive control, Boehringer Ingelheim): Twelve BLM-induced pulmonary fibrosis model mice were orally administered 1% CMC supplemented with BIBF1120 at a dose of 100 mg/kg once daily from day 7 to 21. […]
Histological analysis of lung sections was conducted by practitioners who are not aware of the Group identity. Masson's Trichrome staining is conducted and an Ashcroft Score estimate was determined. […]

Where [3] appears, read: 10 mg/kg IV twice weekly, day 28, mean ± SD, n = 8.
[4] abbreviates: isotype-matched antibody vs disease control, M1043 Antibody vs isotype-matched antibody.

B1: M1043: rat IgG1 antibody that binds mouse endoglin and competitively inhibits mouse BMP binding; VH SEQ ID NO: 124, VL SEQ ID NO: 125 (antibody, V domains shown)
VH: QVQLQQSGAELVKPGSSVKISCKASGYTFTSYDMHWIKQQPGNGLEWIGWIYPGNGNTKYNQKFNGKATLTADKSSSTAYMQLSSLTSEDSAVYFCARGKFGVGDYWGQGVMVTVSS
VL: DTVLTQSPALAVSPGERVSISCRASEGVNSYMHWYQQKPGQQPKLLIYIASNLASGVPARFSGSGSGTDFTLTIDPVEADDTATYFCQQSWNDPYTFGAGTKLELKR
Turning to B1, the “Effect on mouse BMP binding to mouse endoglin” value with mouse endoglin is recorded as “competitively inhibit mouse BMP binding”. For the same molecule, in data set [1] (10 mg/kg IV twice weekly), the “General condition / abnormal findings” value was “no abnormal findings were observed”. Further, in data set [1] (setting [3]), the “Body weight on the day of sacrifice” value came out at 20.5 ± 0.7 g, the Liver weight is 896 ± 48 mg and the “Sirius red-positive area (fibrosis area)” value came to 2.07 ± 0.52%. For the same molecule, the “Percentage of fibrosis area (Sirius red-positive area), comparison with isotype-matched antibody group” value in data set [1] (listed as Antibody M1043) is on record as “significant reduction of collagen deposition”. Also, in data set [1] (listed as M1043 Antibody), the “Percentage of fibrosis area (Sirius red-positive area), comparison with isotype-matched antibody group” value is given as “significantly decreased”. Further, in data set [1] (histology, day 28), the “Collagen deposition and bridging fibrosis in Sirius red-stained liver sections” value is on record as “lower collagen deposition with less frequent formation of bridging fibrosis”. In addition, in data set [1] (setting [4]), the “Body weight changes, comparison between groups” value was “no significant differences” and the “Body weight on the day of sacrifice, comparison between groups” value is “no significant differences”. In addition, the “Mean liver weight, comparison between groups” value in data set [1] (isotype-matched antibody vs disease-control, M1043 Antibody vs isotype-matched antibody) is reported as “no significant difference in mean body weight”. The “Ashcroft score, comparison between groups” value in data set [2] is listed as “no significant difference”.
